Assay results reported in article PMC8808565 (iScience, 2009).

Molecular target: SARS-CoV-2 (2019-nCoV) Spike RBD-His Recombinant Protein, Biotinylated (SARS-CoV-2, UniProt P0DTC2, biotin (biotinylated; site not stated))
Experiment: SPR

GIGDPVTCLKSGAICHPVFCPRRYKQIGTCGLPGTKCCKKP [Human beta defensin 2 (hBD-2), recombinant]
Kd: 1800 ± 1100 nM
